Source: US20230065226A1

Molecular target: mouse chemokine receptors (mouse)
Assay: cell-based or functional assay

B1: (LD78β(C11S)Fv^315)2 vaccibody (protein, part only; not given: IgG3 hinge, CH3, scFv carrier, not shown: another chain or arm of the molecule; a dimerising Fc or GST; large carriers; small tags and cut ends)
chain: APLAADTPTASCFSYTSRQIPQNFIADYFETSSQCSKPSVIFLTKRGRQVCADPSEEWVQKYVSDLELSA
modifications: not fully specified (C-terminus); ends and bridges not checked; also: covalent homodimer via IgG3 hinge disulfides, C-terminal carrier (IgG3 hinge, CH3, scFv315) not in chain
ability to stimulate T cells (proliferation of Id^315-specific Th2 cells with BALB/c splenocytes as APC): 100 fold
